41 sequences from the nanobody polyreactivity screen of Harvey et al. (2022) can be followed below.

The series in a line: yeast display, Sf9 membrane polyspecificity reagent, FACS + sequencing; frameworks hold sequencing errors. The gist of the method: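 Synthetic nanobody libraries on Saccharomyces cerevisiae BJ5465 were galactose-induced for 36–48 hours, stained 1 hour at 4 °C with 10% biotinylated, detergent-solubilized Sf9 membrane reagent and enriched on streptavidin microbeads. FACS then separated cells into low and high (top ~1%) gates by anti-HA (expression) and streptavidin (reagent binding) fluorescence. Genes were colony-PCR amplified, MiSeq 2 × 250 sequenced and CDR-length filtered. A clone's polyreactivity label is that of its gate of origin.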
“QVQLVESGGGLVQAGGSLRLSCAASGLTFSVYAMGWYRQAPGKERELVAAITRNGGSTYYADSVKGRFTISRDNAKNTVYLQMNSLKTEDTAVYYCAADASSKLYDYWGQGTQVSVSS”: the “polyreactivity (PSR sort gate)” value is “low polyreactivity”.

For the sequence “QVQLVESGGGLVQAGGSLRLSCAASGIIFSYNVMGWYRQAPGKEREFVADITWNGGSTYYADSVKGRFTISRDNAKNTVYLQMNSLKPEDTAVYYCATGWPWYSNYASAYDYWGQGTQVTVSS”, the “polyreactivity (PSR sort gate)” value was “low polyreactivity”.

With “QVQLLESGGGLVQAGGSLRLSCAASGRTFTGYVMGWYRQATGKERELVAGISRRGGRTYYADSVKGRFTISRDNAKNTVYLQMNSLKPEDTAVYYCAAAVTSSDPYDYWGQGTQVTVSS”, the “polyreactivity (PSR sort gate)” value is “high polyreactivity”.

For the sequence “QVQLVESGAGLVQAGGSLRLSFAASGRTFVSYDMGWYRQATGKERELVAAITYSGGSSTYYADSVKGRFTISRDNAKNTVYLQMNSLKPEDTAVYYCAVYGGGSRNFGDVGYWGQGTLVTVSS”, the “polyreactivity (PSR sort gate)” value is “low polyreactivity”.

Regarding “QVQLVESGGGLVQAGGSLRLSCAASGRIFFGYAMGWYRQAPGKERELVAAITRRGTITHYADSVKGRFTISRDNAKNTVYLQMNSLKPEDTAVYYCNTVYARYSTAPGYNYWGQGTQVTVSS”, the “polyreactivity (PSR sort gate)” value was “high polyreactivity”.

For the sequence “QVQLVESGGGLVQAGGSLRLSCAASGRIFHFNTMGWYRQAPGKERELVAAITSSGGSTNYADSVKGRFTISRDNAKNTVYLQMNSLKPEDTAVYYCNADTGAADYFDFDYWGQGTQVTVSS”, the “polyreactivity (PSR sort gate)” value was “low polyreactivity”.

In the case of “QVQHVESGGGLVQAGGSLRLSCAASGSIFIPNAMGWYRQAPGKERELVAAITSGGRTYYADSVKGRFTISRDNAKNTVYLQMNSLKPEDTAVYYCAARSGYRYVESEYWGQGTQVTVSS”, the “polyreactivity (PSR sort gate)” value is given as “high polyreactivity”.

Take “QVQLVESGGGLVQAGGSLRLSCAASGSTFGYYTMGWYRQAPGKERELVASIDVSGDSTSYADSVKGRFTISRDNAKNTVYVQMNSLKPEDTAVYYCNTGRYPTSPTHNYWGQGTHVTVSS”: the “polyreactivity (PSR sort gate)” value is listed as “low polyreactivity”.

For “QFQLVESGGGLVQAGGSLRLSCAASGIIFGRYTKGWYRDAPGKETELVAAITSSGITYYADSVKGRFTISRDNAKNTVYLQMNSLKPEDTAVYYCAADVGYWGRSRGYPSDDYDYWGQGTQVTVSS”, the “polyreactivity (PSR sort gate)” value is “low polyreactivity”.

Take “QVQLVESGGGLVQAGGSLRLSCAASGPTFTPYAMGWYRPAPGKERELVAAISGGGSTNYADSVKGRFTISRDNAKNTVFLQMNSLKPEDTAVYYCAKRVYRGRRMDYWGQGTQVTVSS”: the “polyreactivity (PSR sort gate)” value is on record as “high polyreactivity”.

“QVHLVESGGGLVQAGGSLRLSCAASGSTFPVNAMGWYRQAPGKERELVAAIRSSTGRTYYADSVKGRFTISRDNAKNSVYLQMNSLKPEDTAVYNFAAEGDYYDFISPPLDYWGQGTQVTVSS”: the “polyreactivity (PSR sort gate)” value was “low polyreactivity”.

Take “QVQLVESGGCLVQAGGSLRLSCAASGRTFSYYAMGWYRQAPGKVRELVAAISRRGGSTTYADSVKGRFTISRDNAKNTVYLQMNSLKPEDTAVYYCNTYPPAHREYASWGQGTQVTVSS”: the “polyreactivity (PSR sort gate)” value is “high polyreactivity”.

Take “LVQLVESGGGLVQAGGSLRLSCAASGRTFRLNALGWYRPAPGNERELVARITGSSGGSTYSADSVKGRFTISRDNAKNTVYLQMNSLKPEDTAVYYCAARYTPRGKRYDYWGQGTQVTGSS”: the “polyreactivity (PSR sort gate)” value is “high polyreactivity”.

With “QVQLVESGGGLVQAGGSLRLSCAASGSTFYGYGMGWYRQAPGKERELVAAITGSGDTTYYADSVKGRFTISRDNAKNTVYLQMNSLKPEDTAVYYCAADLTVRYDYWGQGTQVTVSS”, the “polyreactivity (PSR sort gate)” value is “low polyreactivity”.

Take “QVQLVESGGGLVQAGGSLRLSCAASGSIFSGNAMGWYRQAPGKERELVAAIDWSGDSTYYADSVKGRFTISRDNAKNTVYLQMNSLKPEDTAVYYCNTVSFSWGYSAYDYWGQGTQVTVSS”: the “polyreactivity (PSR sort gate)” value is reported as “low polyreactivity”.

On to “QVQLVESGGGLVQAGGSLRLSCAASGSIFRYNAMGWYRQAPGKERELVAGISWSGGSTYYADSVKGRFTISRDNAKNTVYLQMNSLKPEDTAVYYCATRVGRYWTAGYYWGQGTQVTVSS”, for which the “polyreactivity (PSR sort gate)” value is listed as “high polyreactivity”.

Consider “QVHLVESGGGLVQAGGSLRLSCAASGSIFWANAMGWYSQAPGKERELVAAINFRATITYYADSVKGRFTISRDIAKNTFYLQMISLKPEDTAVYYCAGDSYECWYDYWGQGTEVTVSS”, for which the “polyreactivity (PSR sort gate)” value is recorded as “high polyreactivity”.

For “QVHLVETGGCLVQAGGSLRLSCAASGRTFYQNTMGWYRQAPGKERELVAAISSGGSTHYADSVKGRFTISRDNAKNTVYLQMNSLKPEDTAVYYCAKRYFYSYRYGYWGQGTQVTVSS”, the “polyreactivity (PSR sort gate)” value is reported as “high polyreactivity”.

As to “QVQLVESGGGLVQAGGSIRLSCAASGIIFLGNAMGWYRQAPGIERELVAAITASGTTSYYADSVKGRFTISRDNAKNTVSLQMNSLKPEDTAVDYCAAQSTWYDFYYWVQGTQVTVSS”, the “polyreactivity (PSR sort gate)” value was “low polyreactivity”.

Regarding “QVQLVESGGGLVQAGGSLRLSCAASGITFWNYAMGWYRQAPGKERELVAAISYSGGSTYYADSVKGRFTISRDNAKNTVYLQMNSLKPEDTAVYYCAATLPTNWVRYEYWGQGTQVTVSS”, the “polyreactivity (PSR sort gate)” value is reported as “low polyreactivity”.

In the case of “QVQLVESGGGLVQAGGSLRLSCAASVSTIGYYAMGWYRQAPGKEWELVAAITWSGDSTYADSVKGRFTISRDNAKNTVYLQMNRLKPEDTAVYYCARRGFLGHWPRPSYDYWGQGTQVTVSS”, the “polyreactivity (PSR sort gate)” value is recorded as “low polyreactivity”.

On to “QVQLVESGGGLVQAGGSLRLSCAPSGRTFSENAMGWYRQAPGKERELVAAISGSGGRTYYADSVMGRFTISRDNAKNSVFLQMNSLKPEVTAVYYCAKVTRYGSTYDYWGQGTQVTVSS”, for which the “polyreactivity (PSR sort gate)” value is given as “high polyreactivity”.

Consider “QVQLVESGGGLVQAGGSLRLSCAASGSIRSYAMGWYRQAPGKERELVAAITRSGGSTYYADSVKGRFTLSRDNAKNSVYLQMNSLKPEDTAVYYCAARYTYSYPYYRYNYWGQGTQVTVSS”, for which the “polyreactivity (PSR sort gate)” value is recorded as “high polyreactivity”.

For “QVQLVESGGGLVQAGGSLLVSCAASGRIFSYNAMGWYRQAPGKERELVAAITRSGSTNYADSVKGRFTISRDNANNTVYLQMNSLKPEDTAVYYCAAVVYRPYRWQYDYWGQGTQVTVSS”, the “polyreactivity (PSR sort gate)” value is on record as “high polyreactivity”.

As for “QVQLVESGGGLVQAGGSLRLSCAASGSTFVTYAKGWYRQAPGKERELVAAITSGGSTNYADSVKGRFTISRDNAKNTVYLQMNCLKPEDTEVYYCAARYYGAYGKQPRARYGYWGQGTQVTVSS”, the “polyreactivity (PSR sort gate)” value is “high polyreactivity”.

As for “QVQLVESGGGLVQAGGSLRLSCAASGRTFYYYYTMGWYRQAPGKERELVAAISRSGSTNYADSVKGRFTISRDNAKNTVYLQMNSLKPEDTAVYYCARSYRSDGSRFGYWGQGTQVTVSS”, the “polyreactivity (PSR sort gate)” value is “low polyreactivity”.

“QVQLVESGGGLVQAGGSLRLSCAASGFTFIPNAMGWYRQAPGKERELVADITWSGGTTYYADSVKGRFTISRDNAKNTVYLQMNSLKPEDTAVYYCNADYLFYAFDYWGQGTQVTVSS”: the “polyreactivity (PSR sort gate)” value is recorded as “low polyreactivity”.

As to “QVQLVESGGGIVQAGGSLRLSCAASGFTFSSYAMGWYRQAPGKERELVAAISSGGGSTYYADSVKGRFTISRDNAKNTVYLQMNSLKPEDTAVYYCAASHYYSNGYWGQGTQVTVSS”, the “polyreactivity (PSR sort gate)” value is “high polyreactivity”.

Turning to “QVQLVESGGGLVQAGGSLRLSCADSGRTFQYYAMGWSRQSPAKERELVAAITSGGSTYYADSVKGRFTISRDNAKNTVYLQMNSLKTEDTAVYYCAADFLYYSSGGKMDYWGQGTQVTVSS”, the “polyreactivity (PSR sort gate)” value was “low polyreactivity”.

As to “QVQLVETGGGLVQAGGSLRLSCAASGNIFRAYPMGWYRQAPGKERELVARINSGAITNYADSVKGRFTISRDNAKNTVYLQMNSLKPDDTAVYYCARDTQYPYYFLMDYWGQGTQVTVSS”, the “polyreactivity (PSR sort gate)” value was “low polyreactivity”.

Take “QVQLVESGGGLVQAGGSLRLSCAASGRIFSSNVMGWYRQAPGKERELVAAITSGGSTYYADSVKGRFTISRDNAKNTVYLQMNSLKPEDTAVYYCAASYWVLRYRYDYWGQGTQVTVSS”: the “polyreactivity (PSR sort gate)” value is “high polyreactivity”.

As to “QVQLVESGGGLVQAGGSLRLSCAASGITFVYYVMGWYRQAPGKERELVAAINAGGGSTYYADSVKGRFTISRDNAKNTVYLQMNSLKPEDTAVYYCNARVRVRLGRNWSSYYYWGQGTQVTVSS”, the “polyreactivity (PSR sort gate)” value is “high polyreactivity”.

Take “QVQLVESGGGLVQAGGSLRLSCAASGITFTFYAMGWYRQAPGKERELVAAISRRGGSTYYADSVKGRFTISRDNAKNTVYLQMNSLKPEDTAVYYCAARGYRPMDYWGQGTQVTVSS”: the “polyreactivity (PSR sort gate)” value is “high polyreactivity”.

As to “QVQLVESGGGLVQAGGSLRLSCAASGSTYYANAMGWYRQAPGKEREFVATISSSDGSTYYADSVKGRFTISRDNAMNTVYLQMYSLKPEDTAVYYCNAADYPEAHSTYYYWGQGTLVTVSS”, the “polyreactivity (PSR sort gate)” value was “low polyreactivity”.

For the sequence “QVQLVESGGGLVQAGGRLRLSCAASGSTIRRYAMRWYRQAPGKERELVAAIRQRGTSTYYADSVKGRFTISRDNAKNTVYLQMNSLKPEDTAVYYCAADSYSSRGNYWGQGTQVTVSS”, the “polyreactivity (PSR sort gate)” value is recorded as “high polyreactivity”.

As to “QVQLVESGGGLVQAGGSLRLICAASGIIFATYAMGWYRQAPGKERELVAVISNDGSTHYADSVKGRFTISRDNAKNTVYLQMNSLKPEDTAVYYCAARYPYDWRHDYWGQGTQVTVSS”, the “polyreactivity (PSR sort gate)” value is recorded as “low polyreactivity”.

Consider “QVQLVESGGGLVQAGGSLRLSCAASGSTFRYYAMGWYRQAPGKERELVAAITWSGGRTTYADSVKGRFTISRDNAKNTVYLQMNSLKPEDTAVYYCAAEWHYFVTMYYWGQGTQVTVSS”, for which the “polyreactivity (PSR sort gate)” value is given as “low polyreactivity”.

For “QVQLVESGGGLVQAGGSLRLSCAGSGSSFSNYAMRGYRQATGKERELVAVITTGASTYYADSLKGRFTISRDNAKNTVYLQLNSLKPEDSAVYACAKGKISRETPGIYWSYSYGYWGQGTQVTVSS”, the “polyreactivity (PSR sort gate)” value is “high polyreactivity”.

Turning to “QVQLVESAGGLVQAGGSLRLSCAASGRIFPYNVIGWYRQAPGKERELVAAISSGGTTDYADSVKGRFTISRDNAKNTVYLQMNSLKPEDTAVYYCAATYVYWTWGYDYWGQGTQVTVSS”, the “polyreactivity (PSR sort gate)” value is “low polyreactivity”.

Take “QVQLVESGGGLVQAGGSLRLSGAASGRIFDIYAMGWYRQAPGKERELVAGITSVGSTNYADSVKGRFTISRDYAKNTVYLQMNSLKPEDTAVYYCAADTSVHSEVDYGGQGTQVTVSS”: the “polyreactivity (PSR sort gate)” value is listed as “low polyreactivity”.

Consider “QVQLVESGGCLVQAGGSLRLSCAASGSIFNSNAMGWYRPARGKERELVAVISWSDGSTRYADSVKGRFTISRDNAKNTVYLQMHSLKPEDTAVYYCNADLVYYYRQEVDYWGQGTQVTVTS”, for which the “polyreactivity (PSR sort gate)” value is given as “low polyreactivity”.
